Measurements taken from article PMC5389741.

Biological target: PGK1 (UniProt P00558)
Assay: GST pull-down with purified proteins
Details: reference: WT GST-ARD1 with mTOR; sites S228

“ARD1 (from UniProt P41227) GST-ARD1 S228A with mTOR” was tested, and the “binding against the reference” value was “stronger”.
